Measured values from the domain aggregation screens of Martell et al. (2025).

assay: soluble fraction after stress (log2 fold change); higher = more stays soluble; pooled small domains, quantitative proteomics; details: stress: 75 degC
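Note: 20 min heating vs room temperature control held 20 min.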

Row | Sequence | soluble fraction (log2)
1 | HMPDIFDRGTAHITDAASGVAITFTRTFRIPPEVTMTHKGGTVVAIARLVGSITTGGFTAVLENT | 0.0362
2 | HMPDLQDTLYRLVPEDGSAIGNQSLREKFLSTAKDASDADFEAARDGLVEQGKLTKGKGRGGSVRRAEP | 0.551
3 | HMPDLSMLDEVLDEYRSQAGSLVTVLQKAQDLYGYLPLTILRHIAEEMNIKPAQVYGVATFYTQFRL | 0.0378
4 | HMPDRQKDIQNWQQIAETLLNMLDKYVAALETGKTGLAEAYKAIFAETLRRLDDRLDPEQFLP | -1.91
5 | HMPDTETLTPRQRQILDLVQELGFTTIETLAERFGVSAQTVRREIIRLQAGNFLQRFHGGAGLASGGIRSA | -1.24
6 | HMPDYAFEGVVIKLTHRDYDRWKAGFPDVDLPPYLTARDAWLSEQTPADRKNWFVSTATDLRNFQKREAI | -1.26
7 | HMPEDQISYTDLIKQINDGNVEKIKMTVGSTTIKVNLKEQEEPKTAIVPSTQAFIELVQEKVQDGNEITLI | 0.164
8 | HMPEITPAMIKALLSSLSEELAFASVTKVYAVLHNLFKAALLDDTIDRNPMDKVPRPRKSKDAAL | -0.576
9 | HMPELPEVETSRRGIEPHLVGATILHAVVRNGRLRWPVSEEIYRLSDQPVLSVQRRAKYLLLELQA | 0.0647
10 | HMPELSPEERAIIETLQKNNDLQVNIIAIKTGMDMGSLSAVLFDLEMKGLVKLLAGGMYHLI | -0.66
11 | HMPEPAPALPAKTRVSIRRETGGIIWHEGAWTISPPIRAYDGRWYVAVTTARKGIEFVPVSSVIRS | -2.18
12 | HMPEPMKLSDLPPELWQRVSDLFDEVIDLPETDRIPYIRNLWGSEPLVAKELMALLVAAANVD | -0.452
13 | HMPESFSEMQKRTGVGEFSDDALSAKYVDSIDADVMSLDEYIMKVRGISLDDLEAERALRAR | 0.0969
14 | HMPETAQLTDIQVSRSQAHTGIFSLHYYLTGTDSRGERVRLEISGDDYTRLSGSSSVTVEYYRHTGRIVRY | -1.16
15 | HMPETYVVFSKDGYANLRRGTTINSEILDVLDNGEYVTKLDEVGEWYRVEYADFDGGYIHKSQLKNI | -0.288
16 | HMPFDRTVQLAGARARQLQALPRYREVLRLLDEGMNPREIGQVLDPPVTRQRASALIQQAKRAQMLGLFED | -1.04
17 | HMPFNLKSLADRLSHVFPGLVKMRDDIGAIIVMDKIKVTEHGVTEGGGLAADRVRAVYNEFIKEY | -0.247
18 | HMPFSLHGVNEGSRNDNAARIAGYLISKNLNLDFVRIFLHNWNRDNKPPLPQQEIDSVVDNVKKTHDRKN | -2.09
19 | HMPGEATVPSVIGMTKAEAKAKLQASGFELGYSEFVASDKPKGEIVEQDPGAGETAKGGTEVNVKISDGS | 0.0718
20 | HMPGLDTTILSDILSLKKELPSRSAAKILIMLILAKRIEEGSLNLRTINRILNQYGYTRESLL | 0.144
21 | HMPGLQSVTPAELKIGMYVILPLAWDEHPFLKNHFLIQSEAQINKIRELGTKGIQIDLSKSHP | -1.9
22 | HMPGMLVVYVTGAVRQPGRMVTLAAGSRVSDAIDAAGGLADDADAQALNLSARLNDGDLVHVPSALD | -0.264
23 | HMPHILEITSSKILDELQDEKKMVYFHFEKQSNQYVYRLIFNSKNELMEFKKSLEKNSSILDVRADM | -1.81
24 | HMPHITDAEWEVMRVVWANHHVTSKEVISILEDKMNWKATTIKTLLGRLVEKGALSTEQDGKKFIYTAR | -1.6
25 | HMPHTDATDKQIIALILETLKDGQKHSVSEMTFPGIPREKTAQLLHQMIEEETVRIQNGVLFLPH | 0.00795
26 | HMPIDNTLLSRITSLGVSTTEAEKLISKHGEEALKANLEVVEERLSKPNLPLLDSPAAYLKTALKNG | 0.415
27 | HMPIEQVEVPNLTNMTREEAESTLTSLNLKAQVHEEANEADEGKVFKQGTNTGEMVDEGSTIEIWVS | -0.549
28 | HMPIHAGERLTLRLAGEGREAGQAIGYLEDGTLVIVERARHLIGQDVTVEVTRTLQTAGGRLVFAHLVE | -1.1

Row | Sequence | soluble fraction (log2)
29 | HMPKDLEKRAAILAAAKHLFPVHGFEGTSMDAIAALANVSKLTVYSHFKDKESLFTEAIREK | -0.0647
30 | HMPKDMAKRASILTAASKLFVQHGYGGVSMDQIAAEAGVSKLTVYSHYGDKDSLFAAAVQAH | -0.617
31 | HMPKELAPYDILARYYLTVNNSKQSIALLEQYLDKAGSAPAALKAKLLLAGILYPSGNKERAEKLVEEVIK | -0.463
32 | HMPKETFLNLDEEKRQAIINVLLKNFSEQHISQVKVSAIVSGIGMSRGAFYKYFEDLEDAYRFTISYFSA | 0.147
33 | HMPKLTKEEIQFIDNYLKNSGVEYIDTRAEVVDHVASEIESRLSANNTTNFYEEFKVYMVQHKETLLK | -0.21
34 | HMPKLVGEVMQTLDALRREKGLSLLLVEQNARAALGVVDRVYVLERGRVVFEGSAKEAMEDQDVMEFYLG | 0.0465
35 | HMPKRSKDEAELEFLEMLRDNQVDSTWSFGKIISQLGSTDPRYWMVDDDPLWKRQIFEKYLSNR | -0.228
36 | HMPLDISDDSKAVLKLLKNDSNELNTVKSASGLSNKKWDKTIKELTKNKIVSVSKTEDGLYIHLI | 0.438
37 | HMPLDYQELRNISPQAARQAILQILKANKGNVSQTARMLGITRKTVYKAMAKREAGNLDDGSRAPK | -1.41
38 | HMPLLELPDDFYPAWKPKTIYVQGQRIMLDGVAFEAKWWTQGDNPASGQADPGSSPWRTLTQEEIAKLLE | -1.52
39 | HMPLLKIGAQGHDVRVVQEALQRAGYAIEGVTGIFDEATREAVLAFQRDQQLTESGTVDRATWHALRR | -0.0683
40 | HMPLLSPRQLDVLSLAAGGLSDAQIAGRLVLSESTVRVHFHHIIEKLGVTDRAGAIAWYEQSRS | -2.05
41 | HMPLNAFDVAGYRLGYGGGYFDRTLAALSPRPLAVGVGFEINRLESIRPEAHDQRLDWIVTENGAFRPA | -1.58
42 | HMPLNAHIVGRGKRDRRGKRGAPYSIVLELGRDENGKRIQKWYSGYPTKAAAEEDKIRMLRELQTGEYVPQ | -0.889
43 | HMPLPFSPVMFVGTKSGAQTDLDGNYKIETYYSSDSLKVVVLGYAPLAKKVKQGTTSVVNFELSAAS | 0.161
44 | HMPLPLYVQIKESLRGQIFDGTYGEHERLPSENDLMSSFGVSRITVRQALSDLEKEELIFKVPGKGAFVSR | -1.5
45 | HMPLQKNRPKIKPQKVVFLFSVEWMWSPAHNRIDSYFINIKPSRYYLWNSFFDRHSFSDYWDFIGYTEN | 0.1
46 | HMPLSDAEKAAAIATQAKERALKLSPEMISYLLRHASRDMRTLSMLVVALDQYTLEQKRPVTLPLLRELLS | -0.0668
47 | HMPMIQHFHRMISAALGISEKQIVQTLGLLNDGATIPFISRYRKEVTGGLDEVQIESIKTHYEKLNEIAK | -2.33
48 | HMPMPQDEVSYALGLSIGQNFKASGIKAITSEDFIAGLQDALAEREPQMTTERAREVINQLFMRLQQEESE | 0.323
49 | HMPMTDYQLIRSNRRTIALQITRDARVVVRAPLYASEADIRRFVESHRAWIESHLDRQRARTD | -3.25
50 | HMPMTRILFLPDDRTILQFDSAEPAEDLVSAVNAGRWLPPEPYRSGFGLGLPENRLRASRQGALVVVMLS | -0.984
51 | HMPNDYRKKLEILAKEKGAEYLHTMLTEVDPKSALQIHTNNIKRTIRALEFYHQTGMKISEHNEAEREK | -0.204
52 | HMPNIHVVFAEEWTDRRLDKVLSEYFDGYSRSFIKKLFDDGLILVNSKAVKPSYKVRAGDMIDISVPDPV | -1.83
53 | HMPNPALESARPAFEAFLSRFSDGEAMRGPAWGLWSLLHRKGNAPTASHAAGRDGMGVLAFLRHWQWG | -0.452
54 | HMPPDLSEAIQKRIEGKTDEALEILRKLYNEYPESTEIITMLGRTLLDAEEYALAAFRLEQALDLGG | -0.699
55 | HMPPDVIENIFKNDANKIIDLYNMAPRGQKETIVEMIKNKRLQGINVDANVLVKLGELTGIDFVN | -0.087
